Assay results as given in the supplement of paper PMC10567573.

B1: TRIM63 (parent)
chain: QEKKLSFIEALIQQYQEQLDKSTK
B2: MFF (parent)
chain: DDLTVVDAASLRRQIIKLNRRLQL

Variants of: B1
Test: protein stability index of a GFP-peptide fusion (GPS, HEK-293T) (PSI 1-6); higher = more stable
Details: c terminus: a fixed tail appended
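Further: lentivirally expressed fusions sorted by FACS into six bins by GFP to DsRed ratio, PSI derived from sequencing read proportions per bin multiplied by bin number.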

Protein stability index: each site, then its substitutions
K24: W 1.67 | V 2.31 | Y 1.36

Variants of: B2
Test: as above
Details: c terminus: a fixed tail appended

Protein stability index: each site, then its substitutions
R13: L 2.56 | M 2.54 | E 2.42 | F 1.69 | H 1.95 | A 2.88 | S 2.39 | P 2.56 | K 2.17 | Q 2.06 | D 2.27 | G 2.14 | T 1.85 | I 1.41 | V 2.55 | C 2.22 | N 2.21 | Y 1.7
A8: K 3.29 | P 2.42 | M 3.09 | V 1.9 | S 2.49 | H 1.95 | Y 1.3 | F 2.35 | D 2.8 | Q 2.38 | R 2.57 | N 2.63 | G 3.13 | I 1.61 | C 1.93 | W 2.17 | E 2.63 | L 2.58 | T 1.69
T4: I 2.2 | M 2.24 | K 2.15 | H 1.7 | Q 2.32 | P 1.56 | L 2.62 | E 2.21 | S 2.43 | V 1.96 | N 2.3 | C 1.86 | D 2.6 | Y 1.43 | R 2.18 | F 2.08 | A 1.91
N19: C 3.04 | P 2.33 | H 1.75 | M 1.74 | D 3.79 | I 2.02 | F 2.16 | K 1.94 | Q 2.01 | E 3
A9: H 2.52 | N 2.42 | M 1.84 | I 2.79 | T 1.82 | W 1.84 | F 1.58 | S 2.2 | D 2.02 | P 2.12 | G 2.11 | K 2.31 | R 4.18 | Q 2.22 | E 2.13 | Y 2.48 | L 2.08 | C 2.03
D2: V 1.13 | F 2.48 | S 2.24 | R 1.82 | A 2.37 | P 2.45 | I 1.85 | T 2.31 | C 2.73 | Q 2.32 | G 2.56 | E 1.72 | W 2.86 | L 1.24 | M 2.09 | N 2.22 | Y 2 | K 2.3 | H 2.02
D1: C 2.04 | I 2.32 | E 1.67 | H 1.84 | K 1.84 | M 1.98 | S 2.28 | T 1.78 | N 2.1 | A 2.08 | F 2.42 | Y 2.81 | W 1.88 | G 2.17 | Q 3.2 | V 2.39 | L 1.61 | P 2.05 | R 2.45
I15: M 1.87 | V 3.05 | A 2.43 | Y 2.57 | P 4.26 | N 2.71 | Q 3.66 | T 2.94 | W 2.34 | K 3.5 | S 3.74 | E 3.83 | L 2.23 | F 2 | R 3.71 | D 3.96 | G 3
V5: R 1.7 | M 2.05 | K 2.47 | Y 2.17 | L 1.69 | A 2.44 | W 1.93 | H 2.69 | D 2.37 | P 2.42 | S 2.5 | E 2.38 | C 1.72 | F 1.72 | T 2.69 | Q 2.26 | N 2.61 | I 2.66
L11: N 2.59 | Q 3.24 | E 3.7 | K 3.28 | A 2.33 | C 2.16 | D 3.79 | I 2.72 | R 3.91 | W 2.84 | G 3.84 | P 3.33 | V 3.05 | H 3.19 | F 2.48 | Y 2.82 | M 2.51 | T 3.39 | S 3.73
V6: Q 1.9 | T 2.34 | H 2.71 | I 1.55 | W 2.4 | A 2.91 | G 3.34 | L 2.37 | M 1.99 | R 2.91 | C 2.41 | P 4.09 | N 2.4 | F 2.29 | K 2.35 | Y 1.77 | E 2.08 | D 2.3 | S 1.64
S10: F 2.32 | G 2.3 | Q 2.28 | V 1.64 | H 2.02 | N 2.28 | L 1.24 | Y 1.69 | I 1.72 | A 1.7 | W 3.84 | K 1.79 | M 1.42 | T 1.61 | E 2.13 | D 2.05 | P 2.89 | C 1.48 | R 2.83
R12: P 2.51 | K 2.01 | F 1.99 | N 2.42 | C 1.95 | I 1.23 | T 1.73 | L 1.67 | D 2.5 | H 2.58 | M 1.64 | W 1.92 | A 2.07 | Q 2.13 | Y 1.9 | G 1.85 | V 2.06 | S 2.1
L3: Y 1.96 | N 2.09 | I 1.8 | H 2.73 | A 2.59 | D 2.58 | F 2.73 | S 2.57 | E 2.56 | T 2.2 | M 3.06 | V 2.8 | C 2.33 | P 2.48 | G 2.58 | Q 2.45 | K 2.34 | W 1.48 | R 2.58
Q14: M 1.04 | K 2.23 | T 3.2 | S 2.11 | D 2.16 | Y 1.54 | A 1.82 | H 1.57 | I 2.3 | P 3.56 | E 1.78 | F 1.51 | L 2.45 | G 2.5 | C 2.27 | N 2.31 | R 2.58
I16: N 2.8 | L 2.19 | R 3.58 | T 1.92 | A 2.48 | E 1.88 | Y 2.97 | H 2.26 | S 1.52 | D 2.85 | G 1.64 | P 3.66 | F 3.4 | Q 1.98 | M 1.67 | C 1.69
K17: A 1.01 | P 3.72 | H 2.08 | W 1.74 | G 1.99 | T 2.47 | S 2.76 | R 2.24 | C 2.44 | L 2.37 | I 1.85 | N 2.2 | D 1.85 | Q 1.57 | V 1.66 | Y 1.89
L18: K 3.31 | Y 3.26 | N 3.39 | F 3.41 | C 1.62 | G 2.48 | V 1.95 | H 3 | A 1.86 | S 3.04 | T 2.89 | M 2.38 | D 4.13 | P 3.42 | W 1.84 | I 3.42 | R 3.73
D7: S 2.24 | A 2.29 | H 3.12 | F 1.85 | T 1.64 | Y 1.61 | P 2.71 | E 2.04 | N 1.89 | Q 2.17 | C 1.4 | M 2.19 | W 1.92 | R 2.93 | K 1.89 | G 2.71
